Data on 1 molecule can be found in US20180292412A1 (JULIUS MAXIMILIANS UNIVERSIT T W RZBURG, published 2018).

Assay [1] deals with T1, recombinant mature human GDF-15 protein derived from expression in E. coli (human, UniProt Q99988 195-308).
T1 construct: mature; also called GDF-15 derived from E. coli expression
T1 sequence (looked up): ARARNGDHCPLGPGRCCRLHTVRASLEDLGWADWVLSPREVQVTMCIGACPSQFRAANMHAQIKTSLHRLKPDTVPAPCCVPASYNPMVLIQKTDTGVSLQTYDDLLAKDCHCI
Briefly: SPR (Biorad ProteOn XPR36), GDF-15 from E. coli immobilised, antibody as analyte. The text has this:
The GLC sensor chip was activated using Sulfo-NHS (N-Hydroxysulfosuccinimide) and EDC (1-Ethyl-3-[3-dimethylaminopropyl]carbodiimide hydrochloride) (Biorad ProteOn Amine Coupling Kit) according to the manufacturer's recommendation, the sensor surface was subsequently loaded with the proteins up to a density of about 600 RU (1 Ru=1 pg mm⁻²). The non-reacted coupling groups were then quenched by perfusion with 1M ethanolamine pH 8.5 and the biosensor was equilibrated by perfusing the chip with running buffer ([…], 150 mM NaCl, 3.4 mM EDTA, 0.005% Tween-20, pH 7.4, referred to as HBS150). As controls two flow cells were used, one empty with no protein coupled and one coupled with an non-physiological protein partner (human Interleukin-5), which was immobilized using the same coupling chemistry and the same coupling density. For interaction measurements anti-human GDF-15 mAb-B1-23 was dissolved in HBS150 and used in six different concentrations as analyte (concentration: 0.4, 0.8, 3, 12, 49 und 98 nM). […] The resulting sensogram was analyzed using the software ProteOn Manager version 3.0. […] For the association rate constant a value of 5.4±0.06×10⁵ M⁻¹s⁻¹ (kₒₙ) and for the dissociation rate constant a value of 4.3±0.03×10⁻⁴ s⁻¹ (koff) could be determined (values are for the interaction of anti-human GDF-15 mAb-B1-23 with GDF-15 derived from insect cell expression).

The target of assay [2] is T2, recombinant mature human GDF-15 protein (as expressed in Baculovirus-transfected HighFive insect cells) (human, UniProt Q99988 197-308).
T2 construct: Immobilised by amine coupling on the SPR chip; also called recombinant human GDF-15; GDF-15 derived from insect cell expression
T2 sequence: T1 sequence (looked up) with A1G, R2S
Briefly: SPR (Biorad ProteOn XPR36), calculated as koff/kon. The text has this: (§1) For preparing the biosensors recombinant mature human GDF-15 protein was immobilized on flow cells 1 and 2. On one flow cell recombinant GDF-15 derived from Baculvirus-transfected insect cells (HighFive insect cells) and on the other recombinant protein derived from expression in E. coli was used. The GLC sensor chip was activated using Sulfo-NHS (N-Hydroxysulfosuccinimide) and EDC (1-Ethyl-3-[3-dimethylaminopropyl]carbodiimide hydrochloride) (Biorad ProteOn Amine Coupling Kit) according to the manufacturer's recommendation, the sensor surface was subsequently loaded with the proteins up to a density of about 600 RU (1 Ru=1 pg mm⁻²). The non-reacted coupling groups were then quenched by perfusion with 1M ethanolamine pH 8.5 and the biosensor was equilibrated by perfusing the chip with running buffer ([…], 150 mM NaCl, 3.4 mM EDTA, 0.005% Tween-20, pH 7.4, referred to as HBS150). […] The resulting sensogram was analyzed using the software ProteOn Manager version 3.0. […] For the association rate constant a value of 5.4±0.06×10⁵ M⁻¹s⁻¹ (kₒₙ) and for the dissociation rate constant a value of 4.3±0.03×10⁻⁴ s⁻¹ (koff) could be determined (values are for the interaction of anti-human GDF-15 mAb-B1-23 with GDF-15 derived from insect cell expression).

The target of assay [3] is T2, recombinant mature human GDF-15 protein …. Briefly: SPR (Biorad ProteOn XPR36, GLC chip), GDF-15 from insect cells immobilised, antibody as analyte, 25° C., 1:1 Langmuir model.
Text: as §1

Where a chain is given by its changes, count along the chain named. Some results are limits rather than exact numbers.

B1: monoclonal anti-human GDF-15 mAb-B1-23 (antibody, IgG2a, V domains shown, not shown: a dimerising Fc or GST)
VH: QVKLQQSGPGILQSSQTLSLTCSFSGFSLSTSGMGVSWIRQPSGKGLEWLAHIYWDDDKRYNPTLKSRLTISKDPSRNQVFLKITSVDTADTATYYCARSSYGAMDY
VL: DIVLTQSPKFMSTSVGDRVSVTCKASQNVGTNVAWFLQKPGQSPKALIYSASYRYSGVPDRFTGSGSGTDFTLTISNVQSEDLAEYFCQQYNNFPYT
notes: Mouse hybridoma antibody (DSM ACC3142), IgG2a, kappa chain; FR4 and the constant regions are missing; also called antibody B1-23; monoclonal mouse antibody GDF-15
For B1, in assay [1], the “fold difference of affinity against GDF-15 derived from insect cells” value was < 2 fold. Also, the Kd (usually the constant that tells how readily two partners part at equilibrium) in assay [2] was ~0.79 nM. In assay [3], the koff – broadly, the first-order rate constant of dissociation – turned out to be 0.00043 s⁻¹ and the kon (commonly the rate constant with which the complex forms) is 540000 M⁻¹ s⁻¹.
